Residue numbers refer to the chain shown, from its start. Numbers in names are those of the source. Where “and” joins values, the source holds several entries; their conditions need not be identical. Identical values can stand only once.
Key:
[1] = biological target: Bni5(1–313) used for FFF-MALS (S. cerevisiae) (UniProt P53890); experiment: field-flow fractionation with multi-angle light scattering
[2] = biological target: Otherwise Cys-less septin hetero-octamers capped with Cdc11(Δα0) E294C labeled with AF555 (S. cerevisiae) (UniProt P32458); experiment: FRET or BRET
[3] = biological target: T1, (His)8-3C protease cleavage site-Bni5 fusion (wild-type Bni5) (S. cerevisiae), P53890; experiment: AUC; conditions: remark: other sources report otherwise
T1 chain: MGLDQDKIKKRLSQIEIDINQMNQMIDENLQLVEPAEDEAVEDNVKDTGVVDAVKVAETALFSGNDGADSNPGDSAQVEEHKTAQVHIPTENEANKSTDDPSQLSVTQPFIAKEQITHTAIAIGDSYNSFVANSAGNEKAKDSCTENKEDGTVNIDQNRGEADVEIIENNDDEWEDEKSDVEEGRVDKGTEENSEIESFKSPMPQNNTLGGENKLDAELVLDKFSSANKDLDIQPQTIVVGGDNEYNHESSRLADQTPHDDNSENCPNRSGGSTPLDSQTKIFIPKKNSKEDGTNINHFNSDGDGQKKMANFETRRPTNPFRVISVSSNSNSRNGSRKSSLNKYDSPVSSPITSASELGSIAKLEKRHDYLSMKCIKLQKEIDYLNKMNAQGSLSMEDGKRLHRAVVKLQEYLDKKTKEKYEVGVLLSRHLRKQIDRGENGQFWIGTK

[4] = biological target: T1, (His)8-3C protease cleavage site-Bni5 …; experiment: field-flow fractionation with multi-angle light scattering; conditions: remark: other sources report otherwise
[5] = biological target: T2, (His)8-3C protease cleavage site-Bni5 fusion (wild-type Bni5) (S. cerevisiae, UniProt P53890 1-448); experiment: negative-stain electron microscopy with 2D class averages
T2 sequence (looked up): T1 chain

[6] = biological target: the molecule itself; experiment: as above

Molecule: Bni5(1–313) used for FFF-MALS (from UniProt P53890 1-313) (domain or fragment)
- stoichiometry N [1]: 2 and 4

B1: Bni5(314–448) C375 labeled with AF647 (domain or fragment)
chain: TRRPTNPFRVISVSSNSNSRNGSRKSSLNKYDSPVSSPITSASELGSIAKLEKRHDYLSMKCIKLQKEIDYLNKMNAQGSLSMEDGKRLHRAVVKLQEYLDKKTKEKYEVGVLLSRHLRKQIDRGENGQFWIGTK
modifications: AF647 (Alexa Fluor 647 maleimide) on C375
- EC50 [2]: 614 nM

B2: Bni5(C144R C266F) labeled with AF647 at C375 (natural protein)
chain: T1 chain with C144R, C266F
modifications: AF647 (Alexa Fluor 647 maleimide) on C375
- Kd [2]: 154 nM

B3: (His)8-3C protease cleavage site-Bni5 fusion (wild-type Bni5), P53890 1-448 (natural protein)
chain: T1 chain
- stoichiometry N [3]: 2
- stoichiometry N [4]: 2 and 4

B4: Cdc11 (wild type), terminal subunit of the septin hetero-octamer (natural protein, S. cerevisiae, UniProt P32458 1-415, looked up)
chain: MSGIIDASSALRKRKHLKRGITFTVMIVGQSGSGRSTFINTLCGQQVVDTSTTILLPTDTSTEIDLQLREETVELEDDEGVKIQLNIIDTPGFGDSLDNSPSFEIISDYIRHQYDEILLEESRVRRNPRFKDGRVHCCLYLINPTGHGLKEIDVEFIRQLGSLVNIIPVISKSDSLTRDELKLNKKLIMEDIDRWNLPIYNFPFDEDEISDEDYETNMYLRTLLPFAIIGSNEVYEMGGDVGTIRGRKYPWGILDVEDSSISDFVILRNALLISHLHDLKNYTHEILYERYRTEALSGESVAAESIRPNLTKLNGSSSSSTTTRRNTNPFKQSNNINNDVLNPASDMHGQSTGENNETYMTREEQIRLEEERLKAFEERVQQELLLKRQELLQREKELREIEARLEKEAKIKQEE
- binding result [5]: binds

B5: Wild-type Cdc11-capped septin hetero-octamers (Cdc11-Cdc12-Cdc3-Cdc10-Cdc10-Cdc3-Cdc12-Cdc11) used for EM (complex, S. cerevisiae)
chain 1: B4 chain
chain 2: MSAATATAAPVPPPVGISNLPNQRYKIVNEEGGTFTVMLCGESGLGKTTFINTLFQTVLKRADGQQHRQEPIRKTVEIDITRALLEEKHFELRVNVIDTPGFGDNVNNNKAWQPLVDFIDDQHDSYMRQEQQPYRTKKFDLRVHAVLYFIRPTGHGLKPIDIETMKRLSTRANLIPVIAKADTLTAQELQQFKSRIRQVIEAQEIRIFTPPLDADSKEDAKSGSNPDSAAVEHARQLIEAMPFAIVGSEKKFDNGQGTQVVARKYPWGLVEIENDSHCDFRKLRALLLRTYLLDLISTTQEMHYETYRRLRLEGHENTGEGNEDFTLPAIAPARKLSHNPRYKEEENALKKYFTDQVKAEEQRFRQWEQNIVNERIRLNGDLEEIQGKVKKLEEQVKSLQVKKSHLK
chain 3: MSLKEEQVSIKQDPEQEERQHDQFNDVQIKQESQDHDGVDSQYTNGTQNDDSERFEAAESDVKVEPGLGMGITSSQSEKGQVLPDQPEIKFIRRQINGYVGFANLPKQWHRRSIKNGFSFNLLCVGPDGIGKTTLMKTLFNNDDIEANLVKDYEEELANDQEEEEGQGEGHENQSQEQRHKVKIKSYESVIEENGVKLNLNVIDTEGFGDFLNNDQKSWDPIIKEIDSRFDQYLDAENKINRHSINDKRIHACLYFIEPTGHYLKPLDLKFMQSVYEKCNLIPVIAKSDILTDEEILSFKKTIMNQLIQSNIELFKPPIYSNDDAENSHLSERLFSSLPYAVIGSNDIVENYSGNQVRGRSYPWGVIEVDNDNHSDFNLLKNLLIKQFMEELKERTSKILYENYRSSKLAKLGIKQDNSVFKEFDPISKQQEEKTLHEAKLAKLEIEMKTVFQQKVSEKEKKLQKSETELFARHKEMKEKLTKQLKALEDKKKQLELSINSASPNVNHSPVPTKKKGFLR
chain 4: MDPLSSVQPASYVGFDTITNQIEHRLLKKGFQFNIMVVGQSGLGKSTLINTLFASHLIDSATGDDISALPVTKTTEMKISTHTLVEDRVRLNINVIDTPGFGDFIDNSKAWEPIVKYIKEQHSQYLRKELTAQRERFITDTRVHAILYFLQPNGKELSRLDVEALKRLTEIANVIPVIGKSDTLTLDERTEFRELIQNEFEKYNFKIYPYDSEELTDEELELNRSVRSIIPFAVVGSENEIEINGETFRGRKTRWSAINVEDINQCDFVYLREFLIRTHLQDLIETTSYIHYEGFRARQLIALKENANSRSSAHMSSNAIQR
- binding result [6]: binds

B6: Cdc11-capped septin hetero-octamers containing Cdc10-GFP as the sole source of Cdc10 (complex, S. cerevisiae)
chain 1: B4 chain
chain 2: B5 chain 2
chain 3: B5 chain 3
chain 4: B5 chain 4
- binding result [6]: binds

Source: PMC5138130 (Journal of molecular biology, 2016)
